US20080199426A1 (BETH ISRAEL DEACONESS MEDICAL CENTER, published 2008)

B1: SH2 domain of Btk (other, UniProt Q06187 281-377, looked up)
chain: WYSKHMTRSQAEQLLKQEGKEGGFIVRDSSKAGKYTVSVFAKSTGDPQGVIRHYVVCSTPQSQYYLAEKHLFSTIPELINYHQHNSAGLISRLKYPV
notes: domain: SH2 domain
B2: SH2 domain of Stap2 (other, UniProt Q9UGK3 133-248, looked up)
chain: YMMSEVLAKEEARRALETPSCFLKVSRLEAQLLLERYPECGNLLLRPSGDGADGVSVTTRQMHNGTHVVRHYKVKREGPKYVIDVEQPFSCTSLDAVVNYFVSHTKKALVPFLLDE
notes: domain: SH2 domain
B3: SH2 domain of Nck1 (other, UniProt P16333 282-376, looked up)
chain: WYYGKVTRHQAEMALNERGHEGDFLIRDSESSPNDFSVSLKAQGKNKHFKVQLKETVYCIGQRKFSTMEELVEHYKKAPIFTSEQGEKLYLVKHL
notes: domain: SH2 domain
B4: SH2 domain of RaLP (other, UniProt Q6S5L8 526-617, looked up)
chain: CYHGKLSRKAAESLLVKDGDFLVRESATSPGQYVLSGLQGGQAKHLLLVDPEGKVRTKDHVFDNVGHLIRYHMDNSLPIISSGSEVSLKQPV
notes: domain: SH2 domain
B5: SH2 domain of Csk (other, UniProt P41240 82-171, looked up)
chain: WFHGKITREQAERLLYPPETGLFLVRESTNYPGDYTLCVSCDGKVEHYRIMYHASKLSIDEEVYFENLMQLVEHYTSDADGLCTRLIKPK
notes: domain: SH2 domain
B6: SH2 domain of Hck (other, UniProt P08631 144-241, looked up)
chain: WFFKGISRKDAERQLLAPGNMLGSFMIRDSETTKGSYSLSVRDYDPRQGDTVKHYKIRTLDNGGFYISPRSTFSTLQELVDHYKKGNDGLCQKLSVPC
notes: domain: SH2 domain
B7: SH2 domain of Brdg1 (other, UniProt Q9ULZ2 177-280, looked up)
chain: ACFYTVSRKEATEMLQKNPSLGNMILRPGSDSRNYSITIRQEIDIPRIKHYKVMSVGQNYTIELEKPVTLPNLFSVIDYFVKETRGNLRPFICSTDENTGQEPS
notes: domain: SH2 domain
B8: SH2 domain of Nck2 (other, UniProt O43639 285-380, looked up)
chain: WYYGNVTRHQAECALNERGVEGDFLIRDSESSPSDFSVSLKASGKNKHFKVQLVDNVYCIGQRRFHTMDELVEHYKKAPIFTSEHGEKLYLVRALQ
notes: domain: SH2 domain
B9: SH2 domain of TNS (other, UniProt Q9HBL0 1567-1676, looked up)
chain: WYKPEISREQAIALLKDQEPGAFIIRDSHSFRGAYGLAMKVSSPPPTIMQQNKKGDMTHELVRHFLIETGPRGVKLKGCPNEPNFGSLSALVYQHSIIPLALPCKLVIPN
notes: domain: SH2 domain
B10: SH2 domain of SHC3 (other, UniProt Q92529 499-590, looked up)
chain: WYQGEMSRKEAEGLLEKDGDFLVRKSTTNPGSFVLTGMHNGQAKHLLLVDPEGTIRTKDRVFDSISHLINHHLESSLPIVSAGSELCLQQPV
notes: domain: SH2 domain
B11: SH2 domain of Eat2 (other, UniProt O14796 5-101, looked up)
chain: YYHGRLTKQDCETLLLKEGVDGNFLLRDSESIPGVLCLCVSFKNIVYTYRIFREKHGYYRIQTAEGSPKQVFPSLKELISKFEKPNQGMVVHLLKPI
notes: domain: SH2 domain
B12: SH2 domain of Lck (other, UniProt P06239 127-224, looked up)
chain: WFFKNLSRKDAERQLLAPGNTHGSFLIRESESTAGSFSLSVRDFDQNQGEVVKHYKIRNLDNGGFYISPRITFPGLHELVRHYTNASDGLCTRLSRPC
notes: domain: SH2 domain
B13: SH2 domain of Fes (other, UniProt P07332 460-549, looked up)
chain: WYHGAIPRAEVAELLVHSGDFLVRESQGKQEYVLSVLWDGLPRHFIIQSLDNLYRLEGEGFPSIPLLIDHLLSTQQPLTKKSGVVLHRAV
notes: domain: SH2 domain
B14: SH2 domain of Grap (other, UniProt Q13588 60-154, looked up)
chain: WYSGRISRQLAEEILMKRNHLGAFLIRESESSPGEFSVSVNYGDQVQHFKVLREASGKYFLWEEKFNSLNELVDFYRTTTIAKKRQIFLRDEEPL
notes: domain: SH2 domain
B15: SH2 domain of Abl1 (other, UniProt P00519 127-217, looked up)
chain: WYHGPVSRNAAEYLLSSGINGSFLVRESESSPGQRSISLRYEGRVYHYRINTASDGKLYVSSESRFNTLAELVHHHSTVADGLITTLHYPA
notes: domain: SH2 domain
B16: SH2 domain of Grb14 (other, UniProt Q14449 439-535, looked up)
chain: WFHHKISRDEAQRLIIQQGLVDGVFLVRDSQSNPKTFVLSMSHGQKIKHFQIIPVEDDGEMFHTLDDGHTRFTDLIQLVEFYQLNKGVLPCKLKHYC
notes: domain: SH2 domain
B17: SH2 domain of Crkl (other, UniProt P46109 14-102, looked up)
chain: WYMGPVSRQEAQTRLQGQRHGMFLVRDSSTCPGDYVLSVSENSRVSHYIINSLPNRRFKIGDQEFDHLPALLEFYKIHYLDTTTLIEPA
notes: domain: SH2 domain; also called Crk1
B18: SH2 domain of Fgr (other, UniProt P09769 144-241, looked up)
chain: WYFGKIGRKDAERQLLSPGNPQGAFLIRESETTKGAYSLSIRDWDQTRGDHVKHYKIRKLDMGGYYITTRVQFNSVQELVQHYMEVNDGLCNLLIAPC
notes: domain: SH2 domain
B19: SH2 domain of Matk (other, UniProt P42679 122-211, looked up)
chain: WFHGKISGQEAVQQLQPPEDGLFLVRESARHPGDYVLCVSFGRDVIHYRVLHRDGHLTIDEAVFFCNLMDMVEHYSKDKGAICTKLVRPK
notes: domain: SH2 domain
B20: SH2 domain of SHC1 (other, UniProt P29353 488-579, looked up)
chain: WFHGKLSRREAEALLQLNGDFLVRESTTTPGQYVLTGLQSGQPKHLLLVDPEGVVRTKDHRFESVSHLISYHMDNHLPIISAGSELCLQQPV
notes: domain: SH2 domain
B21: SH2 domain of Yes (other, UniProt P07947 158-255, looked up)
chain: WYFGKMGRKDAERLLLNPGNQRGIFLVRESETTKGAYSLSIRDWDEIRGDNVKHYKIRKLDNGGYYITTRAQFDTLQKLVKHYTEHADGLCHKLTTVC
notes: domain: SH2 domain
B22: SH2 domain of SHC2 (other, UniProt P98077 487-578, looked up)
chain: WYHGRMSRRAAERMLRADGDFLVRDSVTNPGQYVLTGMHAGQPKHLLLVDPEGVVRTKDVLFESISHLIDHHLQNGQPIVAAESELHLRGVV
notes: domain: SH2 domain
B23: SH2 domain of Fyn (other, UniProt P06241 149-246, looked up)
chain: WYFGKLGRKDAERQLLSFGNPRGTFLIRESETTKGAYSLSIRDWDDMKGDHVKHYKIRKLDNGGYYITTRAQFETLQQLVQHYSERAAGLCCRLVVPC
notes: domain: SH2 domain
B24: SH2 domain of Lyn (other, UniProt P07948 129-226, looked up)
chain: WFFKDITRKDAERQLLAPGNSAGAFLIRESETLKGSFSLSVRDFDPVHGDVIKHYKIRSLDNGGYYISPRITFPCISDMIKHYQKQADGLCRRLEKAC
notes: domain: SH2 domain

Assays:
[1] = target: T1, thrombin-activated EphA2 (endogenous, from lysate of HUVECs stimulated with 1 U/ml thrombin for 5 mins) (human, UniProt P29317 24-976, tyrosine phosphorylated after thrombin stimulation (sites not given)); experiment: SH2 domain array with thrombin-stimulated HUVEC lysate, anti-EphA2 detection
T1 construct: Endogenous EphA2 in a HUVEC lysate, detected on the array with a biotinylated anti-human EphA2 antibody; No signal peptide limits are stated
T1 sequence (P29317 24-976 limits assumed): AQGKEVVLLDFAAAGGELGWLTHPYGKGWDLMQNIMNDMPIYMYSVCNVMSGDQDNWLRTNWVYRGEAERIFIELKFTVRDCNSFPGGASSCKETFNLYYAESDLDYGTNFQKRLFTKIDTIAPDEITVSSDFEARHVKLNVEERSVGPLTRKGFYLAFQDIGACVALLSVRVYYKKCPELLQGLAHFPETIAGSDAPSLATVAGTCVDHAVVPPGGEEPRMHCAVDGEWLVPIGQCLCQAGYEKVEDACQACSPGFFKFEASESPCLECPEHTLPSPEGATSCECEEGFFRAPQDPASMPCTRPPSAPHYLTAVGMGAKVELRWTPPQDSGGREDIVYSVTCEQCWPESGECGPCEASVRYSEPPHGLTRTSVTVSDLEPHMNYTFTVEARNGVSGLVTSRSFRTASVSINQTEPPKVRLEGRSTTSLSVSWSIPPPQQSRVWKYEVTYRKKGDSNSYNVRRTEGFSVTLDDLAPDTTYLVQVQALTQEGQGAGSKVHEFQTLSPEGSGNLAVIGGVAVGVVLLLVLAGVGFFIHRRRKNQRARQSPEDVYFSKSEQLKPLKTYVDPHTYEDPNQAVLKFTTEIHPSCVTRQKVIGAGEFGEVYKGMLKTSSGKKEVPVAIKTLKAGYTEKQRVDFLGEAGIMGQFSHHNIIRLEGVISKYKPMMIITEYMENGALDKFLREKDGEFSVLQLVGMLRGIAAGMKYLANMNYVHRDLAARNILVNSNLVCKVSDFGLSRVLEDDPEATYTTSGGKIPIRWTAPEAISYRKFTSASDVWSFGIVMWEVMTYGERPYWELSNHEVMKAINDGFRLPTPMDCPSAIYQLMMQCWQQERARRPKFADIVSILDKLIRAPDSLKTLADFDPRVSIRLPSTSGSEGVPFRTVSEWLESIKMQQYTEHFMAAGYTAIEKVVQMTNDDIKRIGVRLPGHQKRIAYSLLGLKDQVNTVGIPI
Procedure: (§1) Methods: We used a phosphotyrosine profiling array to identify signaling pathways linked to EphA2 activation by thrombin. HUVECs were prepared and stimulated with 1 U/ml thrombin for 5 mins. TranSignal Phosphotyrosine Profiling Array (Panomics) was used according to the manufacturer's protocol, except that a biotinylated anti-human EphA2 (R & D) was used as the detection antibody.
(§2) Results: Confluent HUVECs were stimulated with thrombin for 5 mins to induce EphA2 phosphorylation. This stimulated lysate and an unstimulated lysate were used in the antibody array experiment. The concept of this array is similar to a far-western blot. On this array, the SH2 domains of 38 signaling molecules were spotted in duplicate. Upon incubation with a lysate, each of these SH2 domains will bind to its specific, tyrosine phosphorylated protein targets. When an anti-human EphA2 antibody was used for detection, any SH2 domains that are bound to EphA2 will appear as two dots in a specific location of the membrane. Therefore, pathways activated post EphA2 phosphorylation can be identified.

[2] = target: T1, thrombin-activated EphA2 (endogenous, …); experiment: SH2 domain array with thrombin-stimulated HUVEC lysate, anti-human EphA2 detection
Procedure: as §1, §2

Binder	binding result [1]	binding result [2]
B1	no binding	–
B2	no binding	–
B3	no binding	–
B4	no binding	–
B5	no binding	–
B6	no binding	–
B7	no binding	–
B8	no binding	–
B9	no binding	–
B10	no binding	–
B11	no binding	–
B12	no binding	–
B13	no binding	–
B14	no binding	–
B15	no binding	–
B16	no binding	–
B17	–	binds
B18	no binding	–
B19	no binding	–
B20	no binding	–
B21	no binding	–
B22	no binding	–
B23	no binding	–
B24	no binding	–
